# Experiment: yeast display, Sf9 membrane polyspecificity reagent, FACS + sequencing; frameworks hold sequencing errors
# Summary of the method: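 Galactose induction of a Saccharomyces cerevisiae BJ5465 synthetic nanobody display library ran 36–48 hours. The cells were then stained for 1 hour at 4 °C with 10% biotinylated, detergent-solubilized Sf9 membrane reagent, pulled down on streptavidin microbeads and FACS-sorted into low and high (top ~1%) gates on expression and reagent-binding fluorescence. Labels for polyreactivity follow the gate of origin.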
row,Sequence,polyreactivity (PSR sort gate)
1,QVQLVESGGGLVQAGGSLRLSCAASGSIFGGYAMGWYRPAPGKERELVASITKSGDSTYADSVKGRFTISRDNAKNTVYLQMNSLKPEDTAVYDCAADSTFGKFEYWGQGTQVTVSS,low polyreactivity
2,QVQLVESGGGLVQAGGSLRLSCAASGSIFGGYAMGWYRQAPGKERELVAAISSGGSTYYADSVKGRFTISRDNAKNTVYLQMNSLKPEDTAVYYCATSTYAYRRNSYDYTRPRFGYWGQGTQVTVSS,high polyreactivity
3,QVQLVESGGGLVQAGGSLRLSCAASGSIFGGYAMGWYRQAPGKERELVAAISVSDDITYYADSVKGRFTISRDNAKNTVYLQMNSLKPEDTAVYYCAAEPDTNYVVRYDYWGQGTQVTVSS,high polyreactivity
4,QVQLVESGGGLVQAGGSLRLSCAASGSIFGGYTMGWSRQAPGKERELVAGITISGGSTYYADSVKGRFTISRDNAKNTVYLQMNSLKPEDTAVYYCAAVSFVVSSWGYGYWGQGTQVTVSS,low polyreactivity
5,QVQLVESGGGLVQAGGSLRLSCAASGSIFGGYTMGWYRQAPGKERELVAAISARGGNTYYADSVKGRFTISRDNAKNTVYLQMNSLKPEDTAVYYCAKVRYTQSYRVYGYWGQGTQVTVSS,high polyreactivity
6,QVQLVESGGGLVQAGGSLRLSCAASGSIFGINAMGWYRQAPGKERELVAAITWSGGSTFYADSVKGRFTISRDNAKNTVYLQMTRLKPEDTAVYYCAADSGREPKGPSRLTYWGQGTQVTVSS,high polyreactivity
7,QVQLVESGGGLVQAGGSLRLSCAASGSIFGIYAMGWYRQAPGKERELVAAISSSGSTNYADSVKGRFTISRDNAKNTVYLQMNSLKPEDTAVYYCAAEQLSARWAYYYWGQGTQVTVSS,low polyreactivity
8,QVQLVESGGGLVQAGGSLRLSCAASGSIFGIYVMGWYRQAPGKERELVAGISTRGGSTYYADSVKGRFTISRDNAKNTVYLQMNSLKPEDTAGYYCAAVPASYRDPMYYWGQGTQVTVSS,low polyreactivity
9,QVQLVESGGGLVQAGGSLRLSCAASGSIFGKYALGWYRQAPGIERELVAAISGRGGGTYYADSVKGRFTISRDNAKNTVYLQVNRLNPEDTGVYYCNAYYSRLRYDYWGQGTQVTVSS,high polyreactivity
10,QVQLVESGGGLVQAGGSLRLSCAASGSIFGKYTMGWYRQAPGKERELVAGITYRAGSTYYADSVKGRFTISRDNAKNTVYLQMNSLKPEDTAVYYCAARFYFRWYYYGSYANYWGQGTQVTVSS,high polyreactivity
11,QVQLVESGGGLVQAGGSLRLSCAASGSIFGLYAMGWYIQAPGKERELVATISKSGVSTYYADSVKGRFTISRDNEKNTVYLQMKSLKPEVTAVYYCNADISRDNDFDYWGQGTQVTVSA,low polyreactivity
12,QVQLVESGGGLVQAGGSLRLSCAASGSIFGLYAMGWYRQAPGKETELVAAINWNGGDTYYADSVKGRFTISRDNAKNPVYLQMNSLKPEDTAVYYCAAEQYRYGIRRRHYDYWGQGTQVTVSS,low polyreactivity
13,QVQLVESGGGLVQAGGSLRLSCAASGSIFGLYAMGWYRQAPGNERELVAAINQSGGSTSYADSVKGRFTISRDNAKNTVYLQMNSLKPEDTAVYYCAAKRSWGATRRAYGRYDYWGQGTQVTVSS,low polyreactivity
14,QVQLVESGGGLVQAGGSLRLSCAASGSIFGNAMGWYRQAPGKERELVAAITRGVSTYYADSVKGRFTISRDNAKNTVYLQMNSLKPEDTAVYYCNKTYVRGVHGVYLPITSYDYWGQGTQVTVSS,low polyreactivity
15,QVQLVESGGGLVQAGGSLRLSCAASGSIFGNAMGWYRQAPGKEREVVAAISSSGSSTYYADSVKGRFTISRDNAKNTVYFQMNSLKPEDTAVYYCAKRRRSAAPKYDYWGQGTQVTVSS,high polyreactivity
16,QVQLVESGGGLVQAGGSLRLSCAASGSIFGNNAMGWYRQARGKERELVAVITDGGNTYYADSVKGRFTISRDNAKNTVYLQMNSLKPEDTAVYYCNADWWGDSDYWGQGTQVTVSS,low polyreactivity
17,QVQLVESGGGLVQAGGSLRLSCAASGSIFGPYAMGWYRQAPGKERELVAAITKSGGSTYYADSVKGRFTISRDNAKNTVYLQMNSLKPEDTSVYYCAADYGHEYWGQGTQVTVSS,low polyreactivity
18,QVQLVESGGGLVQAGGSLRLSCAASGSIFGPYAMGWYRQAPGKERELVAAITSGGSTYYADSVKGRFTISRDNAKNTVYLQMNSLKPEDTAVYYCNAESYFWDFYDYDHWGQGTQVTLSS,low polyreactivity
19,QVQLVESGGGLVQAGGSLRLSCAASGSIFGPYAMGWYRQAPGKERELVAAITWSGDSTYYADSVKGRFTISRDNAKNTVYLQMNSLKPEDTAVYYCAAETFIWGQGTQVTVSS,low polyreactivity
20,QVQLVESGGGLVQAGGSLRLSCAASGSIFGPYVKGWYSQAPGKEREFVAAIRGSGGSTYYADSVKGRFTISRDNAKKTVYLQMNSLKPEDTAVYYCNARLKYTLYYYWGQGTQVTVSS,high polyreactivity
21,QVQLVESGGGLVQAGGSLRLSCAASGSIFGQNAMGWYRQAPGKEMELVAAIRVSGGSTYYADSVKGRFTNSRDNAKNTVYLQKNSLKPEDTAVYYCNARYRGYYGPKTHGVTYYYWGQGTQVTVSS,low polyreactivity
22,QVQLVESGGGLVQAGGSLRLSCAASGSIFGQNAMGWYRQAPGKERELVAAITTSRGSTYYADSVKGRFTISRDNPKNTVDFQMNSLNPEDTAVYYCAARYVTPGYIIYVYWGQGTQVTVSS,high polyreactivity

row,Sequence,polyreactivity (PSR sort gate)
1,QVQLVESGGGLVQAGGSLRLSCAASGSIFGQYAMGRYRQAPGKERDLVAAIDWSSASTYYADSVKGRVTISRDNAKNTVYLQMNSLKPEDTAVYDCNAVGKYYRYDYWGQGTQVTVSS,high polyreactivity
2,QVQLVESGGGLVQAGGSLRLSCAASGSIFGRNAMGWYRQAPGKERELVADIWNGGSTYYADSVKGRFTISRDNAKNTVYLQMNCLKPEDTAVYYCNADANDDGRFGGYIKYDYWGQGTQVTVSS,low polyreactivity
3,QVQLVESGGGLVQAGGSLRLSCAASGSIFGRNAMGWYRQAPGKERELVAGISWSGGSTYYADSVKGRFTISRDNAKNTVYLQMNSLKPEDTAVYYCAADYWTWSGFTYYNYEYWGQGTQVTVSS,high polyreactivity
4,QVQLVESGGGLVQAGGSLRLSCAASGSIFGRNDMGWYRQAPGKERELVAAISGDTTTNYADSVKGRFTISRDNAKNTVYLQMNSLKPEDTAVYYCNRYSGGRWYPEYYYWGQGTQVTVSS,high polyreactivity
5,QVQLVESGGGLVQAGGSLRLSCAASGSIFGRYAMGWYRQAPGKERELVAAISYSNARTYYADSVKGRFTISRDNAKNTVYLQMNSLKPEDTAVYYCAVLRRYLVGNLVGYNYWGQGTQVTVSS,high polyreactivity
6,QVQLVESGGGLVQAGGSLRLSCAASGSIFGRYAMGWYRQAPGKERELVADISWSGGRTYYADSVKGRFTISRDNAKNTVYLQMNSLKPEDTAVYYCNKVYRWFTRFDYWGQGTQLTVSS,high polyreactivity
7,QVQLVESGGGLVQAGGSLRLSCAASGSIFGRYAMGWYRQAPGKERELVASIYSSGSTYYADSVKGRFTISRDNAKNTVYLQMNSLKPEDTAVYYCAAQISVWGYRVGYTKYYYWGQGTQVTVSS,high polyreactivity
8,QVQLVESGGGLVQAGGSLRLSCAASGSIFGRYGAMGWYRQAPGKERELVAAIRTSGVSTYYADSVKGRFTISRDNAKKNVYLQMNSLKPEDTAVYYCAKGYTSYNLGKYGYWGQGTQVTVSS,high polyreactivity
9,QVQLVESGGGLVQAGGSLRLSCAASGSIFGRYPMGWYRQAPGKERELVAAISRRGGSTYYADSVKGRFTISRDNAKNTVYLQMNSLKPEDTAVYYCAARPFVKHDYWGQGTQVTVSS,high polyreactivity
10,QVQLVESGGGLVQAGGSLRLSCAASGSIFGRYVMGWYRQAPGKERELVAAINWSGSRTYYADSVKGRFTISRDNAKNTVYLQMNSLKPEDTAVYYCAADWWSRYYYWGQGTQVTVSS,high polyreactivity
11,QVQLVESGGGLVQAGGSLRLSCAASGSIFGRYVMGWYRQAPGKERELVAAITSVGITNYADSVKGRFTISRDNAKNTVYLQMNSLKPEDTAVYYCAKRYYRYGARSWYYPYDYWGQGTQVTVSS,high polyreactivity
12,QVQLVESGGGLVQAGGSLRLSCAASGSIFGSNALGWSRQAPGKERELVAAITWSDGSTYYADSVKGRFTISRDNAKNTVYLQMNSLKPEDTAVYVRATDYGYSWYDYWGQGTQVTVSS,low polyreactivity
13,QVQLVESGGGLVQAGGSLRLSCAASGSIFGSNTMGWYRQAPGKEREFVAAISFSGGSTYYADSVKGRFTISRDNAKNTVYLQMNSLKPEDTAVYYCAARQRRVGTSFYSSRRDYWGQGTQVTVSS,high polyreactivity
14,QVQLVESGGGLVQAGGSLRLSCAASGSIFGSYAIGWYRHAPGKERELVAAIRYNSGSTYYADSVKGRFTISRDNAKNTVYLQMNSLKPEDTAVYYCAAYLLWGFDYWVQGTQVTVSS,high polyreactivity
15,QVQLVESGGGLVQAGGSLRLSCAASGSIFGSYALGWYRQAPGKERELVAAISKSGGNTYYADSVKGRFTISRDNAKNTVYLQMNSLKPEDTAVYYCAARYRFLRPKVNYWGQGTQVTVSS,high polyreactivity
16,QVQLVESGGGLVQAGGSLRLSCAASGSIFGSYAMGWYRPAPGKERELVAAITRAGSTNYADSVKGRFTISRDNAKNTVYLQMNSLKPEDTAVYYCAVRPGFGRSLWYGYWGQGTQVTVSS,low polyreactivity
17,QVQLVESGGGLVQAGGSLRLSCAASGSIFGSYAMGWYRQAPGKERELVAAISRRGGSTYYADSVKGRFTISRDNAKNTVYLQMNSLKPEDTAVYYCAARWPTGRNGYWGQGTQVTVSS,high polyreactivity
18,QVQLVESGGGLVQAGGSLRLSCAASGSIFGSYAMGWYRQAPGTERELVAAIDWSGVGTYYADSVKGRFTISRDNANNTVYLQMNSLKPEDTAVYYCAAGVLRRDTELYYWGQGTQVTVSS,low polyreactivity
19,QVQLVESGGGLVQAGGSLRLSCAASGSIFGSYTMGWYRPAPGKERELVAAITSGGGNTYYADSVKGRFTISRDNAKNTVYLQMNSLKPEDTAVYYCAARERYTGYGSWGQGTQVTVSS,high polyreactivity
20,QVQLVESGGGLVQAGGSLRLSCAASGSIFGTYAKGWYRQAPGKERELVAAISKRGSTTSYADSVKGRFTISRDNAKNTVYLQMNSLKPEDTAVYYCAALTRNSGGYGSWGQGTQVTVSS,high polyreactivity
21,QVQLVESGGGLVQAGGSLRLSCAASGSIFGTYAMGWYRQAPGKEREFVAAISWSDGSTYYADSVKGRFTISRDNAKNTVYLQMNSLIPEDTAVYYCAVRRVGSIYIDRYIYVVADYDYWGQGTQVTVSS,low polyreactivity

# Reference: the nanobody polyreactivity screen of Harvey et al. (2022)
